Paper doi:10.1101/2024.10.30.620894 (bioRxiv, 2024)

B1: wild-type clusterin (WT-Clu) (natural protein, human)
chain 1: DQTVSDNELQEMSNQGSKYVNKEIQNAVNGVKQIKTLIEKTNEERKTLLSNLEEAKKKKEDALNETRESETKLKELPGVCNETMMALWEECKPCLKQTCMKFYARVCRSGSGLVGRQLEEFLNQSSPFYFWMNGDRIDSLLENDRQQTHMLDVMQDHFSRASSIIDELFQDRFFTREPQDTYHYLPFSLPHRRPHFFFPKSRIVR
chain 2: SLMPFSPYEPLNFHAMFQPFLEMIHEAQQAMDIHFHSPAFQHPPTEFIREGDDDRTVCREIRHNSTGCLRMKDQCDKCREILSVDCSTNNPSQAKLRRELDESLQVAERLTRKYNELLKSYQWKMLNTSSLLEQLNEQFNWVSRLANLTQGEDQYYLRVTTVASHTSDSDVPSGVTEVVVKLFDSDPITVTVPVEVSRKNPKFMETVAEKALQEYRKKHREE
modifications: N-glycans (six in the whole protein) | N-glycans (six in the whole protein)

Assays:
[1] = biological target: VLDLR(28-797)Δ(751-779)-C-tag (VLDLR ectodomain, VLDLR-ed) (human) (UniProt P98155); experiment: ELISA
SEC = biological target: the molecule itself; experiment: SEC

| Molecule | Kd [1] [µM] | stoichiometry N (SEC) |
| --- | --- | --- |
| receptor-associated protein (RAP) (from UniProt P30533 36-357) (natural protein) | 0.0012 |  |
| B1 | 0.08 | 2 |
